Experimental data: paper PMC8068667 (Nature, 2021)

Target: RIFIN PF3D7_1373400 V2 domain, soluble recombinant (P. falciparum 3D7, UniProt C0H5N9)
Assay: cryo-EM structure

B1: MDB1 Fab (LILRB1 D3D4-containing antibody Fab) (Fab, V domains shown)
VH: QITLKESGPTLVERTQTLTLTCTFSGFSLTTDGLGVGWIRQPPGKALEWLALIYYDDVRRYRPSLKSRLTITKDTSKNRVVLTVTDMDPVDAGTYFCVHASLFNLGSRNVYFRYWGQGTLVSVSS
VL: SYDLTQPPSVSVSPGQTARITCSGDSLARQFASWYQQKPGQSPVLLIYKNIERLSAIPERFSGSTSGTSVTLTISGVQAEDEADYFCQSADDSGSYSLFGTGTRVSVL
binding result: binds
